Results as given in patent publication EP1475388A2.
Values belong to the binder of their own block, whether it stands above or below them.

Biological target: human calcium sensitive potassium channel α subunit (human Slowpoke α) (human), Q12791
Test: cell-based or functional assay

Chain of human calcium sensitive potassium channel α subunit (human Slowpoke α) (human), Q12791 (Q12791 whole entry): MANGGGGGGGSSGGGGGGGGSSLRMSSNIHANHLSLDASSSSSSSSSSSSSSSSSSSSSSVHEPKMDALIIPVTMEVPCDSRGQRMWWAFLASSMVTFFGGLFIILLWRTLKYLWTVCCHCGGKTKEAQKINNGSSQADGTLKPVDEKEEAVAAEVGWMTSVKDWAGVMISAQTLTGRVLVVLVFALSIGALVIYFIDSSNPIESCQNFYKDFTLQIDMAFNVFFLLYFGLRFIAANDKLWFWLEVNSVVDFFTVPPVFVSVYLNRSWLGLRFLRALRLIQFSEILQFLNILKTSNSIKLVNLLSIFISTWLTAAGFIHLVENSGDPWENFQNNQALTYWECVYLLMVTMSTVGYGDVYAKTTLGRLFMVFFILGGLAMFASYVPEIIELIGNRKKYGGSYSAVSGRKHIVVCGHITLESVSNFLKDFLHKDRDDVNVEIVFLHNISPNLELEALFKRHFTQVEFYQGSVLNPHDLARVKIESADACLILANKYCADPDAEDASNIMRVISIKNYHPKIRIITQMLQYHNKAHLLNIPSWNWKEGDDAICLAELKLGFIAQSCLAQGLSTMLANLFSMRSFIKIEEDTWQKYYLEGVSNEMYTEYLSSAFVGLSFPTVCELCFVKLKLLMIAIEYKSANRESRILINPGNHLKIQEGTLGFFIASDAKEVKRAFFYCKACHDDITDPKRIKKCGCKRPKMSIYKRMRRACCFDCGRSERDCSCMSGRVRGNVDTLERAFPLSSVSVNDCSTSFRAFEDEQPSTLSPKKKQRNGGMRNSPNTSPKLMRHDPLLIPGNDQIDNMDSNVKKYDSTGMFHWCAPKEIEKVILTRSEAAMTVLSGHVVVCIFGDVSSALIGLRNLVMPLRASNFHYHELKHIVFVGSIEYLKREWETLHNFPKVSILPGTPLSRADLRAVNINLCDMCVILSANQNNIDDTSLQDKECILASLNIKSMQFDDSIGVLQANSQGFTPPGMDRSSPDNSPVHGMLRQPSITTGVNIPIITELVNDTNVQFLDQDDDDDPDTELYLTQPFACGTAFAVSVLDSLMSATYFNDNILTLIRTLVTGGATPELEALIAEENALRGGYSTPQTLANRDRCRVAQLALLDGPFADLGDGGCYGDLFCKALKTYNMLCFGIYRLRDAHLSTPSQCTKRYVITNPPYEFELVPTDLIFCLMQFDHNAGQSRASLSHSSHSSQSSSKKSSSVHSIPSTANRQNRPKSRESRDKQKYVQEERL

V1/2 (half-maximal activation voltage, Boltzmann fit, inside-out patches, 30 µM Ca2+): 20 mV
τinact (inactivation time constant at 80 mV with 30 µM intracellular Ca2+): 30 to 40 ms
B1: human calcium sensitive potassium channel β3c subunit, Q9NPA1 23-279 (protein)
chain: MFPLLYELTAVSPSPFPQRTAFPASGKKRETDYSDGDPLDVHKRLPSSTGEDRAVMLGFAMMGFSVLMFFLLGTTILKPFMLSIQREESTCTAIHTDIMDDWLDCAFTCGVHCHGQGKYPCLQVFVNLSHPGQKALLHYNEEAVQINPKCFYTPKCHQDRSDLLNSALDIKEFFDHKNGTPFSCFYSPASQSEDVILIKKYDQMAIFHCLFWPSLTLLGGALIVGMVRLTQHLSLLCEKYSTVVRDEVGGKVPYIEQHQFKLCIMRRSKGRAEKS

V1/2 (half-maximal activation voltage, Boltzmann fit, inside-out patches, 30 µM Ca2+): -55 mV
shift in the voltage dependence of activation: 80 mV
τinact (inactivation time constant at 80 mV with 30 µM intracellular Ca2+): 30 to 40 ms
B2: human calcium sensitive potassium channel β2 subunit, Q9Y691 1-235 (protein)
chain: MFIWTSGRTSSSYRHDEKRNIYQKIRDHDLLDKRKTVTALKAGEDRAILLGLAMMVCSIMMYFLLGITLLRSYMQSVWTEESQCTLLNASITETFNCSFSCGPDCWKLSQYPCLQVYVNLTSSGEKLLLYHTEETIKINQKCSYIPKCGKNFEESMSLVNVVMENFRKYQHFSCYSDPEGNQKSVILTKLYSSNVLFHSLFWPTCMMAGGVAIVAMVKLTQYLSLLCERIQRINR

V1/2 (half-maximal activation voltage, Boltzmann fit, inside-out patches, 30 µM Ca2+): 45.4 mV
τinact (inactivation time constant at 80 mV with 30 µM intracellular Ca2+): 30 to 40 ms
B3: human calcium sensitive potassium channel β3a subunit, Q9NPA1 23-279 (protein)
chain: MQPFSIPVQITLQGSRRRQGRTAFPASGKKRETDYSDGDPLDVHKRLPSSTGEDRAVMLGFAMMGFSVLMFFLLGTTILKPFMLSIQREESTCTAIHTDIMDDWLDCAFTCGVHCHGQGKYPCLQVFVNLSHPGQKALLHYNEEAVQINPKCFYTPKCHQDRSDLLNSALDIKEFFDHKNGTPFSCFYSPASQSEDVILIKKYDQMAIFHCLFWPSLTLLGGALIVGMVRLTQHLSLLCEKYSTVVRDEVGGKVPYIEQHQFKLCIMRRSKGRAEKS
